Laboratory results: publication PMC11952958, “Integrative structural analysis of NF45–NF90 heterodimers reveals architectural rearrangements and oligomerization on binding dsRNA”

What was measured:
[1] = biological target: T1, NF90long;NF45 (Mus musculus;Homo sapiens, UniProt Q9Z1X4;Q12905 1-591;1-390, |); test: SEC-SAXS; mass photometry; protein:RNA 2:1 and 4:1; RNA saturated at 4:1; 18-bp complex formation: 30 min on ice, SEC in 20 mM HEPES pH 7.5, 150 mM NaCl, 1 mM DTT; mass photometry at 10-50 nM protein; SAXS and EM buffers not in the material; settings: protein: recombinant;recombinant; tags: C-terminal 6xHis (non-cleavable);N-terminal GST, removed with 3C protease; copies: 1;1; S13 is labelled 3'-5' but pairs only if read 5'-3' (18 bp, 7-nt 3' tails)
[2] = biological target: T1, NF90long;NF45; test: quantitative EDC CLMS; 18-bp complex formation: 30 min on ice, SEC in 20 mM HEPES pH 7.5, 150 mM NaCl, 1 mM DTT; mass photometry at 10-50 nM protein; SAXS and EM buffers not in the material; settings: protein: recombinant;recombinant; tags: C-terminal 6xHis (non-cleavable);N-terminal GST, removed with 3C protease; copies: 1;1; blunt
[3] = biological target: T1, NF90long;NF45; test: SEC and EDC cross-linking (SDS-PAGE, CLMS); protein:RNA 1:1 and 2:1; 18-bp complex formation: 30 min on ice, SEC in 20 mM HEPES pH 7.5, 150 mM NaCl, 1 mM DTT; mass photometry at 10-50 nM protein; SAXS and EM buffers not in the material; settings: protein: recombinant;recombinant; tags: C-terminal 6xHis (non-cleavable);N-terminal GST, removed with 3C protease; copies: 1;1; blunt
[4] = biological target: T1, NF90long;NF45; test: SEC-SAXS; mass photometry; not more than 4 heterodimers per RNA (SAXS); up to 3 by mass photometry; 18-bp complex formation: 30 min on ice, SEC in 20 mM HEPES pH 7.5, 150 mM NaCl, 1 mM DTT; mass photometry at 10-50 nM protein; SAXS and EM buffers not in the material; settings: protein: recombinant;recombinant; tags: C-terminal 6xHis (non-cleavable);N-terminal GST, removed with 3C protease; copies: 1;1; blunt

B1: 25-bp dsRNA (SAXS) (dsRNA)
RNA 1: UCACUUUCAUAAUGCUGGUCACUUU
RNA 2: CCAGCAUUAUGAAAGUGACCAGCAU
B1: binds [1].

B2: 25-bp GC-rich dsRNA (CLMS) (dsRNA)
RNA 1: GCCGCGGAGGCCCCGCCGUGGGCCC
RNA 2: GGGCCCACGGCGGGGCCUCCGCGGC
B2: binds [2].

B3: 18-bp 2'-fluoro dsRNA (EDC) (XNA)
RNA 1: UCACUUUCAUAAUGCUGG
RNA 2: CCAGCAUUAUGAAAGUGA
modifications: uniform 2'-fluoro (printed beside the top strand; Methods call the duplex 2'-fluorinated)
B3: binds [3].

B4: 54-bp dsRNA (SAXS) (dsRNA)
RNA 1: UCACUUUCAUAAUGCUGGUCACUUUCAUAAUGCUGGUCACUUUCAUAAUGCUGG
RNA 2: CCAGCAUUAUGAAAGUGACCAGCAUUAUGAAAGUGACCAGCAUUAUGAAAGUGA
B4: binds [4].
